Source: article PMC6669014

Target: NRTN-GFRα2 complex (wild type) (human) (UniProt Q99748)
Assay: SPR

Sequence of UniProt Q99748 (Q99748 97-197, chain 1 of 2): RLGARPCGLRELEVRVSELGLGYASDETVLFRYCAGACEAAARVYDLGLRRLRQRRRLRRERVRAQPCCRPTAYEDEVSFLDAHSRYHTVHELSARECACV
Sequence of UniProt Q99748 (O00451 22-441, chain 2 of 2, further chain): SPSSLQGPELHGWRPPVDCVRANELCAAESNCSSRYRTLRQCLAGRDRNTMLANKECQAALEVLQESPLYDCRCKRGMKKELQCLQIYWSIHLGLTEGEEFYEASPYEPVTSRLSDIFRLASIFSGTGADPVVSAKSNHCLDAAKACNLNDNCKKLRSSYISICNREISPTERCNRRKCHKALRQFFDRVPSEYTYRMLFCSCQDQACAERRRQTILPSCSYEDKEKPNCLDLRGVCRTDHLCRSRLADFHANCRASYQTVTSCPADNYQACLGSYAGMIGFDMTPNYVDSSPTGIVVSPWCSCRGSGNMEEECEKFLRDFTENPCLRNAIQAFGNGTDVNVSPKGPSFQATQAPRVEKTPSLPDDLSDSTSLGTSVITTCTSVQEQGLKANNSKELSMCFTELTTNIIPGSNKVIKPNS

increase in response over NRTN alone: 150 RU
Substance: human RET extracellular domain (RET^ECD, 29 to 635) (from UniProt P07949 29-635) (receptor)
